From the supplement of paper PMC7877785
± gives the uncertainty stated by the source.

Assay: self-splicing fitness, log relative to wild type (ln ratio); higher = more splicing; Tetrahymena group I intron in knt gene, E. coli kanamycin selection, DiMSum; sequences stand for … in CUCUCU…GGAGGGAAAAGUUAUCAGGCAUGCACCUGGUAGCUAGUCUUUAAACCAAUAGAUUGCAUCGGUUUAAAAGGCAAGACCGUCAAAUUGCGGGAAAGGGGUCAACAGCCGUUCAGUACCAAGUCUCAGGGGAAACUUUGAGAUGGCCUUGCAAAGGGUAUGGUAAUAAGCUGACGGACAUGGUCCUAACCACGCAGCCAAGUCCUAAGUCAACAGAUCUUCUGUUGAUAUGGAUGCAGUUCACAGACUAAAUGUCGGUCGGGGAAGAUGUAUUCUUCUCAUAAGAUAUAGUCGGACCUCUCCUUAAUGGGAGCUAGCGGAUGAAGUGAUGCAACACUGGAGCCGCUGGGAACUAAUUUGUAUGCGAAAGUAUAUUGAUUAGUUUUGGAGUACUCGUGGUCG
In short: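 The eight P1ex-region nucleotides of an intron in the knt kanamycin-resistance gene on pET-22b(+) were all randomised and the library put into E. coli BL21(DE3). Six replicate transformations were grown overnight at 37°C or 30°C on LB agar with or without 25 μg/mL kanamycin, together with 100 μg/mL carbenicillin, 50 μM IPTG and 0.2% rhamnose. Colonies were pooled and amplicon-sequenced on an Illumina HiSeq 2500. Fitness from DiMSum is the error-weighted combination of wild-type-normalised replicate fold changes, kanamycin over none.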

Row | Sequence | self-splicing fitness (ln) (30 °C) | self-splicing fitness (ln) (37 °C)
1 | UAUAAGCAAUAUUACGUGGA | -2.08 ± 0.19 | -1.71 ± 0.19
2 | UAUCAGCAAUAUUACGAAAU | -2.9 ± 0.16 | -0.792 ± 0.15
3 | UAUCAGCAAUAUUACGAACG | 0.353 ± 0.085 | 0.157 ± 0.094
4 | UAUCAGCAAUAUUACGAAGA | -0.93 ± 0.12 | -0.91 ± 0.13
5 | UAUCAGCAAUAUUACGAGUC | – | -1.81 ± 0.48
6 | UAUCAGCAAUAUUACGAUUU | 0.142 ± 0.055 | 0.207 ± 0.07
7 | UAUCAGCAAUAUUACGCACU | -0.0365 ± 0.087 | 0.104 ± 0.094
8 | UAUCAGCAAUAUUACGCUGA | – | -2.31 ± 0.37
9 | UAUCAGCAAUAUUACGCUGC | -2.59 ± 0.35 | -0.822 ± 0.24
10 | UAUCAGCAAUAUUACGGGAC | -3.15 ± 0.22 | -2.26 ± 0.25
11 | UAUCAGCAAUAUUACGGGCC | – | -2.07 ± 0.3
12 | UAUCAGCAAUAUUACGGUAC | -3.28 ± 0.26 | -2.54 ± 0.3
13 | UAUCAGCAAUAUUACGGUGA | -0.121 ± 0.054 | -0.19 ± 0.065
14 | UAUCAGCAAUAUUACGGUUG | -0.952 ± 0.068 | -0.113 ± 0.1
15 | UAUCAGCAAUAUUACGUAAG | -2.16 ± 0.16 | -1.09 ± 0.17
16 | UAUCAGCAAUAUUACGUAGU | -1.87 ± 0.086 | -1.19 ± 0.08
17 | UAUCAGCAAUAUUACGUCAA | -0.73 ± 0.092 | -0.445 ± 0.11
18 | UAUCAGCAAUAUUACGUUAU | -3.07 ± 0.11 | -1.89 ± 0.1
19 | UAUGAGCAAUAUUACGCAGU | -1.98 ± 0.24 | -0.419 ± 0.21
20 | UAUGAGCAAUAUUACGCGAG | -2.87 ± 0.17 | -0.834 ± 0.08
21 | UAUGAGCAAUAUUACGCGAU | – | -2.93 ± 0.37
22 | UAUGAGCAAUAUUACGCGUU | -4.08 ± 0.36 | -1.79 ± 0.24
23 | UAUGAGCAAUAUUACGCUCA | -2.45 ± 0.31 | -2.73 ± 0.27
24 | UAUGAGCAAUAUUACGCUGU | -3.79 ± 0.25 | -3.21 ± 0.24
25 | UAUGAGCAAUAUUACGGCGG | -3.22 ± 0.23 | -1.72 ± 0.26

Row | Sequence | self-splicing fitness (ln) (30 °C) | self-splicing fitness (ln) (37 °C)
26 | UAUGAGCAAUAUUACGGCUC | – | -0.823 ± 0.41
27 | UAUGAGCAAUAUUACGGUGA | -2.21 ± 0.16 | -3.36 ± 0.27
28 | UAUGAGCAAUAUUACGGUGC | -3.01 ± 0.41 | -0.888 ± 0.3
29 | UAUGAGCAAUAUUACGUACU | -4.19 ± 0.42 | -1.09 ± 0.41
30 | UAUGAGCAAUAUUACGUAGC | -3.71 ± 0.3 | -2.5 ± 0.29
31 | UAUGAGCAAUAUUACGUAUA | -2 ± 0.4 | -1.02 ± 0.28
32 | UAUGAGCAAUAUUACGUGAG | -2.91 ± 0.14 | -2.74 ± 0.23
33 | UAUGAGCAAUAUUACGUGCG | -1.06 ± 0.12 | -1.41 ± 0.16
34 | UAUGAGCAAUAUUACGUUAC | -3.37 ± 0.36 | -2.48 ± 0.23
35 | UAUGAGCAAUAUUACGUUUG | -3.93 ± 0.26 | -1.8 ± 0.15
36 | UAUUAGCAAUAUUACGACGC | -2.92 ± 0.48 | -2.18 ± 0.38
37 | UAUUAGCAAUAUUACGAUUG | -1.08 ± 0.089 | -0.0341 ± 0.14
38 | UAUUAGCAAUAUUACGCACG | -0.859 ± 0.16 | 0.0642 ± 0.17
39 | UAUUAGCAAUAUUACGCCGU | – | -1.63 ± 0.33
40 | UAUUAGCAAUAUUACGCGGG | -2.9 ± 0.18 | -1.59 ± 0.23
41 | UAUUAGCAAUAUUACGCUGG | -2 ± 0.14 | -0.655 ± 0.14
42 | UAUUAGCAAUAUUACGGAUU | -1.74 ± 0.12 | -0.699 ± 0.11
43 | UAUUAGCAAUAUUACGGCCC | -1.78 ± 0.5 | –
44 | UAUUAGCAAUAUUACGGGAG | -3.18 ± 0.16 | -2.16 ± 0.12
45 | UAUUAGCAAUAUUACGGGUC | -2.14 ± 0.37 | -2.29 ± 0.35
46 | UAUUAGCAAUAUUACGGUAA | -2.24 ± 0.26 | -1.54 ± 0.23
47 | UAUUAGCAAUAUUACGGUUA | 0.108 ± 0.097 | -0.239 ± 0.11
48 | UAUUAGCAAUAUUACGUCCC | -2.83 ± 0.42 | -0.713 ± 0.46
49 | UAUUAGCAAUAUUACGUUCA | -1.04 ± 0.1 | -0.21 ± 0.14
